Measured values: the supplement of paper PMC9170038

Tested on: MS2 coat protein
Assay: apparent KD of MS2 coat protein; designed switch direction (-1 OFF switch, 1 ON switch): -1; higher = weaker reporter binding
Method in brief: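 Apparent KD, taken as the median over clusters for each design, was obtained by curve-fitting normalised cluster fluorescence. Designed RNA switches had been transcribed on Illumina chips by stalled E. coli RNA polymerase and titrated with SNAP-549-labelled MS2 coat protein, doubling from 0.7 or 1.5 nM to 3 µM.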

[1] = input ligand: microRNA oligo, concentration not stated
[2] = Eterna round: R95, input ligand: microRNA oligo, concentration not stated
[3] = Eterna round: R95, input ligand: FMN 200 uM
[4] = Eterna round: R95, input ligand: none

## CCGGCGGUAGGAUAUACAAUUGUAAAAGGCAGGUGGUGUCAACAUGAGGAUCACCCAUGUAGAAGGACCUUAAA [EX2 C.26] (Eterna round: R97, puzzle: Exclusion 2)
Input ligand: FMN 200 uM
  apparent KD of MS2 coat protein: 38.4 nM
Input ligand: none
  apparent KD of MS2 coat protein: 22.4 nM

## AGUACUAACACGAGAGUGUUAGUACAAUAAGCUUGUGAAACAUGAGGAUCACCCAUGUCCUCAUAAGCUCGUCUUAU [salish99_TOv2_r3_029] (Eterna round: R96, puzzle: Sensor v3, turn-off variant 2)
Input ligand: FMN 200 uM
  apparent KD of MS2 coat protein: 15.3 nM
[1]
  apparent KD of MS2 coat protein: 467 nM
Input ligand: none
  apparent KD of MS2 coat protein: 18.1 nM

## CAAAGUUGGUAAGGAUAUCCCACAUUAUUCUGACCCGUGCAAGCUACAUGAGGAUCACCCAUGUGGGAGAAGGUGCGUUAAAGA [Design 1] (Eterna round: R96, puzzle: Exclusion NG 2)
Input ligand: FMN 200 uM
  apparent KD of MS2 coat protein: 93.4 nM
[1]
  apparent KD of MS2 coat protein: 52 nM
Input ligand: none
  apparent KD of MS2 coat protein: 94.3 nM

## CCCAGAGCGUAAGGAUAUACAUGAGGAUCACCCAUGUCUACAAUAAUAGUACUAUAUGAAGUCGUGUAGAAGGUACGCGCAGGU [Eternabot solution 46] (Eterna round: R96, puzzle: Exclusion NG 2)
[1]
  apparent KD of MS2 coat protein: 30.7 nM

## GACUGCUGAGGAUAUACAUGAGGAUCACCCAUGUGCUUCAGUAUCGAAAGAUACAUUGGUAGAAGGUAGUAGUC [LRO-Excl3-07] (puzzle: Exclusion 3)
[2]
  apparent KD of MS2 coat protein: 11.1 nM

## UAUCGGGACUGAGGAUAUUCGUUCGAACACGAAGAAGAAGGUAGUGUCAGGGACAUGAGGAUCACCCAUGUGAUUUCAGUCCUA [JL ViennaUCT Erinle mod 3] (Eterna round: R96, puzzle: Exclusion NG 1)
Input ligand: FMN 200 uM
  apparent KD of MS2 coat protein: 149 nM
[1]
  apparent KD of MS2 coat protein: 102 nM
Input ligand: none
  apparent KD of MS2 coat protein: 165 nM

## GGUUGGCGAGGAUAUACAUGAGGAUCACCCAUGUGAGAGAAGAAAGUGAGAACGAAAAGUAGAAGGCGCUGACG [salish99_ex3_r3_060] (puzzle: Exclusion 3)
[3]
  apparent KD of MS2 coat protein: 2.08 nM
[2]
  apparent KD of MS2 coat protein: 43.8 nM
[4]
  apparent KD of MS2 coat protein: 90.2 nM

## CUCAGACAUGAGGAUCACCCAUGUCAGGAUAUCGUCUACCUGUGGAAACACAGGUAGACGAGAAGGGAUGUGUU [SS1 Omei 3 v1] (puzzle: Exclusion 1)
[2]
  apparent KD of MS2 coat protein: 43.5 nM

## GCAGAAAGUGUAGGAUAUCUAAUAAAGCGGAAACGCAAGACAUGAGGAUCACCCAUGUGUCCGGAAGAGAAGGGCAAAAGCUGC [EXNG2 V2 c] (Eterna round: R96, puzzle: Exclusion NG 2)
Input ligand: FMN 200 uM
  apparent KD of MS2 coat protein: 26.6 nM
[1]
  apparent KD of MS2 coat protein: 22.7 nM
Input ligand: none
  apparent KD of MS2 coat protein: 38.2 nM

## UUUAGUCGUGACAUGGGUGACAUGAGGAUCACCCAUGUCACAAGCUUGUUGCUCGUCUUAUAAUUAACCCAUGUCAC [LRO Sensor-off var1-15 mod of Stov1-13-A1 by Brourd] (Eterna round: R97, puzzle: Sensor, turn-off variant 1)
Input ligand: FMN 200 uM
  apparent KD of MS2 coat protein: 19.3 nM
Input ligand: none
  apparent KD of MS2 coat protein: 19.6 nM

## AAAUAGGCAGGAUAUACAUGAGGAUCACCCAUGUGCCUAUGAAAGGUAAUUUUGAAAGGUAGAAGGGCCUAAAA [ChP 13.04.2015 #4] (puzzle: Exclusion 3)
[2]
  apparent KD of MS2 coat protein: 10.1 nM

## GGUACUAACACGAAAGUGUUAGUACUAUAAGCUUGUGUUACAUGAGGAUCACCCAUGUCCUCAUAGGCUCGUCUUGU [JL-sv3-2.17 mat747 mod] (puzzle: Sensor v3, turn-off variant 2)
[3]
  apparent KD of MS2 coat protein: 105 nM
[2]
  apparent KD of MS2 coat protein: 51 nM
[4]
  apparent KD of MS2 coat protein: 115 nM

## ACUCCUCCUGUUAGGAUAUGCAUCGGGCUUCCGCAGCAGAAGGAACAUGAGGAUCACCCAUGUCAAAUAAAAUC (Eterna round: R97, puzzle: Brourd's mod of Exclusion 4)
Input ligand: FMN 200 uM
  apparent KD of MS2 coat protein: 243 nM
Input ligand: none
  apparent KD of MS2 coat protein: 26.3 nM

## GUUAAACAUGAGGAUCACCCAUGUAAGGAUAUGCUGCGGUAGAGAUGAAGUGAAUGCAGCAGAAGGUACAAUUG [Mat - Mod of JL D54] (puzzle: Exclusion 1)
[2]
  apparent KD of MS2 coat protein: 80.5 nM

## CAGUACUGAGGAUAUACAUGAGGAUCACCCAUGUGUUCCAGCUAGGAAUCUAGCAAAAGUAGAAGGCAGUACUG [salish99_ex3_r3_094x] (Eterna round: R96, puzzle: Exclusion 3)
Input ligand: FMN 200 uM
  apparent KD of MS2 coat protein: 727 nM
[1]
  apparent KD of MS2 coat protein: 22.4 nM
Input ligand: none
  apparent KD of MS2 coat protein: 25.1 nM

## ACAUGAGGAUCACCCAUGUCCGGCUGGUCCGUCUCGGCUGUCGAGGAUAUAGCUCGGUGUCCGCGCUAGAAGGUGGGAGCUGGU [Aenatbe mod 68] (Eterna round: R96, puzzle: Exclusion NG 3)
Input ligand: FMN 200 uM
  apparent KD of MS2 coat protein: 150 nM
[1]
  apparent KD of MS2 coat protein: 93.3 nM
Input ligand: none
  apparent KD of MS2 coat protein: 135 nM

## CCAUAGGGAGGAUAUCCAAUAUAUGACAUGAGGAUCACCCAUGUUUCCACUCGUACCUCCGGAGAAGGCCCAUAAC [Ex5 #8] (Eterna round: R97, puzzle: Exclusion 5)
Input ligand: FMN 200 uM
  apparent KD of MS2 coat protein: 24.4 nM
Input ligand: none
  apparent KD of MS2 coat protein: 21.4 nM

## ACAUAGGUAGGAUAUCUAAGUUGAUACAUGAGGAUCACCCAUGUGUUACUCAAGAUCUACAGAGAAGGGCCUGAGG [Eternabot (L2) Solution 93] (Eterna round: R97, puzzle: Exclusion 5)
Input ligand: FMN 200 uM
  apparent KD of MS2 coat protein: 19.7 nM
Input ligand: none
  apparent KD of MS2 coat protein: 15.3 nM

## GCAAGUUUUUUGUUUUUUAACAUGAGGAUCACCCAUGUAUUUUUAUAGUAUGUGUGAAUAAGAUCUCGUGGUCUUAG [JR_SV3TOV1_Sub100] (puzzle: Sensor v3, turn-off variant 1)
[3]
  apparent KD of MS2 coat protein: 73.3 nM
[2]
  apparent KD of MS2 coat protein: 203 nM
[4]
  apparent KD of MS2 coat protein: 77.2 nM

## GAAUGAGAGCAGGAUAUCUUAUCAAUGUACGAAAGAGAAGGGCUCACAUGAGGAUCACCCAUGUGGUCCUAGAU [jl-ex6-4.66 jandersonlee mod] (Eterna round: R97, puzzle: Exclusion 6)
Input ligand: FMN 200 uM
  apparent KD of MS2 coat protein: 576 nM
Input ligand: none
  apparent KD of MS2 coat protein: 78.8 nM

## GGCGAGCAAGGAUAUGCAGGGUAUCCGACUCGCAGCGGGCGACAUGAGGAUCACCCAUGUAGAAGGUGCACGCG [EX2 A.6] (Eterna round: R97, puzzle: Exclusion 2)
Input ligand: FMN 200 uM
  apparent KD of MS2 coat protein: 23.9 nM
Input ligand: none
  apparent KD of MS2 coat protein: 31 nM

## CUCAUGUGAGGAUAUCAGUAGUAAAAAAAUAAAAUUACUACUGAGAAGGCACAUGAGGAUCACCCAUGUGCCAA [EX4 337: Super Stable 37] (Eterna round: R96, puzzle: Exclusion 4)
[1]
  apparent KD of MS2 coat protein: 12.8 nM

## CAGUACUGAGGAUAUACAUGAGGAUCACCCAUGUGUUCCAGCUAGGUAACUAGCAAAAGUAGAAGGCAGUACUG [salish99_ex3_r3_096x] (puzzle: Exclusion 3)
[2]
  apparent KD of MS2 coat protein: 25.7 nM

## AAACCUCACAACCGUUAAAACAUGAGGAUCACCCAUGUGCCGUAACGGCGCAUGGUCGAGCUAGGCUCGUCCAUGCA [Zamacelaso] (Eterna round: R96, puzzle: Sensor v2, turn-off variant)
Input ligand: FMN 200 uM
  apparent KD of MS2 coat protein: 12 nM
[1]
  apparent KD of MS2 coat protein: 10.2 nM
Input ligand: none
  apparent KD of MS2 coat protein: 15.4 nM

## GUGAUCUAUCAUGGGAUAAACAUGAGGAUCACCCAUGUAGACAAGUUUUUUGCUCGUCUUAUAAUAAGAUAGAUCAC [Antenna 1 - Jieux - Sensor, turn-off variant 1] (Eterna round: R97, puzzle: Sensor, turn-off variant 1)
Input ligand: FMN 200 uM
  apparent KD of MS2 coat protein: 37.2 nM
Input ligand: none
  apparent KD of MS2 coat protein: 39.4 nM
